Experimental data taken from paper PMC8565734, “Construction of ferritin hydrogels utilizing subunit–subunit interactions” (PLoS ONE, 2021).

Target: the molecule itself
Assay: SEC; Superdex 200 increase 10/300 GL, 50 mM potassium phosphate buffer, pH 7.0, 4°C; solution obtained after heating the apoferritin hydrogel at 90°C for 30 min; sizes estimated from a standard curve of standard proteins

B1: horse L apoferritin without eight N-terminal residues (Fer8) (domain or fragment, UniProt P02791 9-175, looked up)
chain: YSTEVEAAVNRLVNLYLRASYTYLSLGFYFDRDDVALEGVCHFFRELAEEKREGAERLLKMQNQRGGRALFQDLQKPSQDEWGTTLDAMKAAIVLEKSLNQALLDLHALGSAQADPHLCDFLESHFLDEEVKLIKKMGDHLTNIQRLVGSQAGLGEYLFERLTLKHD
notes: horse L ferritin (ferritin light chain), printed as 'without eight N-terminal residues'; theoretical [Fer8 subunit + H+] = 19148; The limit 9-end follows from 'without eight N-terminal residues'; also called recombinant horse apoferritin; Fer8 subunit; source: E. coli Nova blue cells (plasmid pKIT8), purified (heat 60°C, Q Sepharose, HiTrap Q HP, SEC); gelled by acid denaturation and …
stoichiometry N: 24
